Experimental data taken from US20130102527A1.
One block for each substance: values may come before it.

Key:
[1] = target: chymotrypsin-like site (β5 subunit) of 26S proteasomes purified from rabbit muscle (rabbit) (UniProt G1T4Q9); assay: cell-based or functional assay
[2] = target: trypsin-like site (β2 subunit) of 26S proteasomes purified from rabbit muscle (rabbit) (UniProt G1SWK8); assay: cell-based or functional assay
[3] = target: caspase-like site (β1 subunit) of 26S proteasomes purified from rabbit muscle (rabbit); assay: cell-based or functional assay
[4] = target: proteasome β2 subunit (trypsin-like site) in human cells and cell extracts (human) (UniProt Q99436); assay: cell-based or functional assay
Sequence of proteasome β2 subunit (trypsin-like site) in human cells and cell extracts (human) (Q99436 44-277): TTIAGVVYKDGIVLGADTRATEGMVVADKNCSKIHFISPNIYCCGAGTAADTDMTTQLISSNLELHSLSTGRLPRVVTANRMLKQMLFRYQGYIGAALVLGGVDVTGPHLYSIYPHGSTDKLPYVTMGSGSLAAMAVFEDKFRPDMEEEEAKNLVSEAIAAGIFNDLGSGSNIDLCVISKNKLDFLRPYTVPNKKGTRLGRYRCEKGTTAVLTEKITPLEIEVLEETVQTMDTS

[5] = target: chymotrypsin-like site (β5 subunit) of yeast 20S proteasome (S. cerevisiae) (UniProt P30656); assay: cell-based or functional assay
Sequence of chymotrypsin-like site (β5 subunit) of yeast 20S proteasome (S. cerevisiae) (P30656 76-287): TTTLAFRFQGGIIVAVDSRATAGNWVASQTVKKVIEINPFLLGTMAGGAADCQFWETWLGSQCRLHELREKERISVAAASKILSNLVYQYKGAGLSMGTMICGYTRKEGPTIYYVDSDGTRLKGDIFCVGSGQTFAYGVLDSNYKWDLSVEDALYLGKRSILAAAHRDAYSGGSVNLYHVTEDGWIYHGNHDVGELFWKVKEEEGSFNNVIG

[6] = target: trypsin-like site (β2 subunit) of yeast 20S proteasome (S. cerevisiae) (UniProt P25043); assay: cell-based or functional assay
Sequence of trypsin-like site (β2 subunit) of yeast 20S proteasome (S. cerevisiae) (P25043 30-261): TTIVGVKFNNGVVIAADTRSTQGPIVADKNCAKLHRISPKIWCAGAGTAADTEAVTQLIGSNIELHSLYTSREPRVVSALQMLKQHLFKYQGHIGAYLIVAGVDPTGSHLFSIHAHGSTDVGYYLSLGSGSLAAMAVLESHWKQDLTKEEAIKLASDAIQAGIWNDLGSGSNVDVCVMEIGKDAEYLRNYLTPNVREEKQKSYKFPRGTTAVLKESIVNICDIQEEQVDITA

[7] = target: proteasome β5 subunit (chymotrypsin-like site) in human cells and cell extracts (human) (UniProt P28074); assay: cell-based or functional assay
Sequence of proteasome β5 subunit (chymotrypsin-like site) in human cells and cell extracts (human) (P28074 60-263): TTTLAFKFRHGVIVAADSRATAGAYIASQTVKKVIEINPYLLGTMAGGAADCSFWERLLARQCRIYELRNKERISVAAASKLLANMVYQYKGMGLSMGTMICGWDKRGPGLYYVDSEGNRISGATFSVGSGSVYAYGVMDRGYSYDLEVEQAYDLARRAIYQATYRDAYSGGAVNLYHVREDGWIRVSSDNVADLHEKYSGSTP

[8] = target: proteasome β1 subunit (caspase-like site) in human cells and cell extracts (human) (UniProt P28072); assay: cell-based or functional assay
Sequence of proteasome β1 subunit (caspase-like site) in human cells and cell extracts (human) (P28072 35-239): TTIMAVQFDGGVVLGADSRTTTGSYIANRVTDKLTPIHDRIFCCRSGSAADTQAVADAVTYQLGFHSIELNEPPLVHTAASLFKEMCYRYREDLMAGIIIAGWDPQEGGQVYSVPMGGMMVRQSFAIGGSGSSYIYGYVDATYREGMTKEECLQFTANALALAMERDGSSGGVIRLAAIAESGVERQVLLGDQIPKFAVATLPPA

[9] = target: proteasome β5 subunit (chymotrypsin-like site) in human cells and cell extracts (human) (UniProt P28074); assay: competition with activity-based probe in living HEK-293 cells, 4 h; Chym-L site
[10] = target: proteasome β2 subunit (trypsin-like site) in human cells and cell extracts (human) (UniProt Q99436); assay: competition with activity-based probe in living HEK-293 cells, 4 h; Tr-L site

Sequence of trypsin-like site (β2 subunit) of 26S proteasomes purified from rabbit muscle (rabbit) (G1SWK8 entry or part of it): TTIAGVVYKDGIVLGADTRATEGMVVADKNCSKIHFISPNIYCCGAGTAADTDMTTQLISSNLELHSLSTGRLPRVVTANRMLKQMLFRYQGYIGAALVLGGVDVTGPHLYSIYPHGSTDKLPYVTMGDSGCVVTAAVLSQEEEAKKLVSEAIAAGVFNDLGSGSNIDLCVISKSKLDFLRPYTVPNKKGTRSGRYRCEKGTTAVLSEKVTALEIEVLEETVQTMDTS
Sequence of chymotrypsin-like site (β5 subunit) of 26S proteasomes purified from rabbit muscle (rabbit) (G1T4Q9 entry or part of it): as the sequence (P28074 60-263) above, with E197D counted along it

IC50 (µM) for sites in 26S proteasomes: Chym-L [1]: 0.04 µM
IC50 (µM) for sites in 26S proteasomes: Tr-L [2]: 0.11 µM
IC50 (µM) for sites in 26S proteasomes: Casp-L [3]: 23 µM
Substance: HMB-Val-Ser-Phe(4-NH2)-VS (49) (peptide)

IC50 (µM) for sites: Tr-L; NCI-H929 cells, 6 h, PROTEASOMEGLO [4]: 0.2 µM
IC50 (µM) for sites: Tr-L; RPMI-8226 cells, 6 h, PROTEASOMEGLO [4]: 3.2 µM
IC50 (µM) for yeast 20S proteasome: Chym-L [5]: 19.3 µM
IC50 (µM) for yeast 20S proteasome: Tr-L [6]: 1.6 µM
IC50 (µM) for sites: Chym-L; NCI-H929 cells, 6 h, PROTEASOMEGLO [7]: 13 µM
IC50 (µM) for sites: Chym-L; RPMI-8226 cells, 6 h, PROTEASOMEGLO [7]: 15 µM
Substance: HMB-Val-Ser-Phe(4-CH2NH2)-VS (48) (peptide)

IC50 (µM) for sites: Casp-L [3]: 30 µM
Substance: N3-Phe-Ala(4-pyridine)-Leu-Phe(4-CH2NH2-TFA)-VS (50) (peptide)

IC50 (µM) for sites: Tr-L; NCI-H929 cells, 6 h, PROTEASOMEGLO [4]: 0.11 µM
IC50 (µM) for sites: Tr-L; RPMI-8226 cells, 6 h, PROTEASOMEGLO [4]: 0.58 µM
IC50 (µM) for sites: Chym-L [1]: 3.4 µM
IC50 (µM) for sites: Chym-L; NCI-H929 cells, 6 h, PROTEASOMEGLO [7]: 3.6 µM
IC50 (µM) for sites: Chym-L; RPMI-8226 cells, 6 h, PROTEASOMEGLO [7]: 7.2 µM
IC50 (µM) for sites: Tr-L [2]: 0.03 µM
IC50 (µM) for sites: Casp-L [3]: 30 µM
IC50 (µM) for sites: Casp-L; NCI-H929 cells, 6 h, PROTEASOMEGLO [8]: 22 µM
IC50 (µM) for sites: Casp-L; RPMI-8226 cells, 6 h, PROTEASOMEGLO [8]: > 30 µM
IC50 [9]: > 50 µM
IC50 [10]: 10 µM
Substance: N3-Phe-Phe(4-NH2.TFA)-Leu-Phe(4-CH2NH2.TFA)-VS (51) (peptide)
